Experimental data taken from patent publication US20240270857A1 (CHIA TAI TIANQING PHARMACEUTICAL GROUP, published 2024).
Like-named read-outs stand apart in the source and are kept apart here.

T1: IL-36R naturally expressed on OVCAR8 cells and on normal human epidermal keratinocytes (NHK cells) (human, UniProt Q9HB29 20-575)
T1 sequence (looked up): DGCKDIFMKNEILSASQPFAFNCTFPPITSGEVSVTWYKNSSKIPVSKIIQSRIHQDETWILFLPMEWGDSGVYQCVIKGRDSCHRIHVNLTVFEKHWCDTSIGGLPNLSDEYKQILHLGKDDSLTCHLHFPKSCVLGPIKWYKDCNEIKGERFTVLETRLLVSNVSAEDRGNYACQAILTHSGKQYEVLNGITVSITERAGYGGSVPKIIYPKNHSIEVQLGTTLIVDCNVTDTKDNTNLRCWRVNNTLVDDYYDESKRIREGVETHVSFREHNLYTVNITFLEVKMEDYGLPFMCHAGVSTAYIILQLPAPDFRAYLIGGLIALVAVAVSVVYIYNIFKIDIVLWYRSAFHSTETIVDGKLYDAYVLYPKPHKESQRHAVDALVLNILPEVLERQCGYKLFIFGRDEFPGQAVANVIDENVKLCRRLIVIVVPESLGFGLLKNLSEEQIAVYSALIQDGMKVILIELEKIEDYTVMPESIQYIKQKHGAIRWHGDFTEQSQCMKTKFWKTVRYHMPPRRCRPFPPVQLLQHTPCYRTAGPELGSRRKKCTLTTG

T2: cynomolgus IL-36R overexpressed on 293T-CynoIL36R-NFκB cells (cynomolgus monkey)
T2 construct: Entry includes the signal peptide; also called monkey IL-36R
T2 chain: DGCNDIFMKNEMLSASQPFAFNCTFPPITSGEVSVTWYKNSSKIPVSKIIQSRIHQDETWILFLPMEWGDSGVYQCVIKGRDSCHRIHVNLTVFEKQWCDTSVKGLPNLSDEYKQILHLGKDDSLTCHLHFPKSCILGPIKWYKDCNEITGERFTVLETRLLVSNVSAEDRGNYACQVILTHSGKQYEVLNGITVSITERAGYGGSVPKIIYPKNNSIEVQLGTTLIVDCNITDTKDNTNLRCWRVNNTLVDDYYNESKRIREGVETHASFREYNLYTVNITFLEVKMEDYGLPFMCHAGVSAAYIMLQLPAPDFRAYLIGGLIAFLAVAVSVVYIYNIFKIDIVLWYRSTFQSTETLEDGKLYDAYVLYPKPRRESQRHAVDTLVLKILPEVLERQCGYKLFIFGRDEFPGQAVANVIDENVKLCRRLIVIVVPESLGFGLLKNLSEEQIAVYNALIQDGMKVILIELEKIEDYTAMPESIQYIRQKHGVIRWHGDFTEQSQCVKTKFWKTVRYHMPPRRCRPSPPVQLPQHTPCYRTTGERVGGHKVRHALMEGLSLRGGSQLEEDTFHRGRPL

T3: human IL-36R overexpressed on 293T-hIL36R-NFκB cells (human, UniProt Q9HB29 20-575)
T3 construct: Entry includes the signal peptide; also called IL1RL2; IL-1Rrp2
T3 sequence: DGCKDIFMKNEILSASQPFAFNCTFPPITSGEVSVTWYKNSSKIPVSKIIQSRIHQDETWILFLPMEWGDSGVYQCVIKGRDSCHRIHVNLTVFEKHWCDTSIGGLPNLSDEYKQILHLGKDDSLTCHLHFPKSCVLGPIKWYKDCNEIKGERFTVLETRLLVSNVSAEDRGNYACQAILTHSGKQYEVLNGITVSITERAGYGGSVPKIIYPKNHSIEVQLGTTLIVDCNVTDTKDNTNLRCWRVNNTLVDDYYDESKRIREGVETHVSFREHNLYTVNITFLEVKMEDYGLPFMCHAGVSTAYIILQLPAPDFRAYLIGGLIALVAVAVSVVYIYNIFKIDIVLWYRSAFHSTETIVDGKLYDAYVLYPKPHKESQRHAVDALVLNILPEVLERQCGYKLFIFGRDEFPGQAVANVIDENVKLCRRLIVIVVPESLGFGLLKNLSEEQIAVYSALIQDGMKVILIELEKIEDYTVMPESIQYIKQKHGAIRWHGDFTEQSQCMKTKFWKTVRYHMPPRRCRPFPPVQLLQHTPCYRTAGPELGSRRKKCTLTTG


How the values were obtained:
[1] = target: T1, IL-36R naturally expressed on OVCAR8 …; test: cell-based or functional assay
[2] = target: T2, cynomolgus IL-36R overexpressed on …; test: FACS on 293T-CynoIL36R-NFκB cells, ratio of MFI to background MFI
Method: (§1) After the cells was washed with PBS, the cells were resuspended with 100 μL of PBS and then the fluorescence signal was detected using a flow cytometer (BD, Accuri C6). […] The ratio was the ratio of mean fluorescence intensity (MFI) of the experimental group/the background MFI, and the resulting data were analyzed using GraphPad Prism.
(§2) Affinity, binding and blocking assays for humanized antibodies hz72C1-1.1, hz72C1-1.2, hz72C1-1.3, hz72C1-2.1, hz72C1-2.2 and hz72C1-2.3 as well as hz84C4-1.1, hz84C4-1.2, hz84C4-1.3, hz84C4-1.4, hz84C4-1.5, hz84C4-2.1, hz84C4-2.2, hz84C4-2.3, hz84C4-2.4 and hz84C4-2.5 were performed according to the methods of Example 4, Example 5. Example 6, Example 7 and Example 8.

[3] = target: T3, human IL-36R overexpressed on …; test: FACS on 293T-hIL36R-NFκB cells, ratio of MFI to background MFI
Method: as §1, §2

[4] = target: T1, IL-36R naturally expressed on OVCAR8 …; test: cell-based or functional assay; remark: listed apart in the source

Binder | IC50 (M); hIL36α; IL-8 production [1] [M] | IC50 (M); hIL36αβγ; IL-8 production [1] [M] | IC50 (M); hIL36β; IL-8 production [1] [M] | IC50 (M); hIL36γ; IL-8 production [1] [M] | Maximum inhibition rate %; hIL36α; IL-8 production [1] [%] | Maximum inhibition rate %; hIL36αβγ; IL-8 production [1] [%] | Maximum inhibition rate %; hIL36β; IL-8 production [1] [%] | Maximum inhibition rate %; hIL36γ; IL-8 production [1] [%] | EC50 [2] [nM] | EC50 [3] [nM] | IC50 (M); hIL36α; IL-8 production [4] [M] | IC50 (M); hIL36αβγ; IL-8 production [4] [M] | IC50 (M); hIL36β; IL-8 production [4] [M] | IC50 (M); hIL36γ; IL-8 production [4] [M] | Maximum inhibition rate %; hIL36α; IL-8 production [4] [%] | Maximum inhibition rate %; hIL36αβγ; IL-8 production [4] [%] | Maximum inhibition rate %; hIL36β; IL-8 production [4] [%] | Maximum inhibition rate %; hIL36γ; IL-8 production [4] [%]
hz84C4-1.1 (antibody, human IgG4 S228P, kappa, V domains shown, Humanized, human IgG4 / kappa) VH: QVQLVQSGAEVKKPGASVKVSCKASGYFFTSYWMNWVRQAPGQGLEWMGMIHPYDSETRYAQKFQGRVTMTVDKSTSTVYMELSSLRSEDTAVYYCASSTTAFAYWGQGTLVTVSS VL: DIQMTQSPSSLSASVGDRVTITCRASQDIGNALNWYQQKPGKAPKRLIYATSSLDPGVPSRFSGSRSGTDFTLTISSLQPEDFATYYCLQYASSPYTFGQGTKVEIKR | 6.38e-12 | 6.51e-12 | 7.61e-12 | 4.77e-12 | 99.7 | 99.9 | 99.3 | 99.6 | 18 | ~5.28 | 2.62e-11 | 5.25e-11 | 2.27e-11 | 1.44e-11 | 103 | 93.7 | 103 | 103
hz84C4-1.3 (antibody, human IgG4 S228P, kappa, V domains shown, Humanized, human IgG4 / kappa) VH: QVQLVQSGAEVKKPGASVKVSCKASGYFFTSYWMNWVRQAPGQGLEWMGMIYPYDSETRYAQKFQGRVTMTVDKSTSTVYMELSSLRSEDTAVYYCASSTTAFAYWGQGTLVTVSS VL: DIQMTQSPSSLSASVGDRVTITCRASQDIGNALNWYQQKPGKAPKRLIYATSSLDPGVPSRFSGSRSGTDFTLTISSLQPEDFATYYCLQYASSPYTFGQGTKVEIKR | – | 5.33e-12 | – | ~6.46e-12 | 20.6 | 44.2 | 21.8 | 59.5 | 9.22 | 18.2 | ~2.41e-09 | ~6.51e-12 | ~1.43e-09 | 2.13e-09 | 16.9 | 40.7 | 19.4 | 57.5
hz84C4-1.4 (antibody, human IgG4 S228P, kappa, V domains shown, Humanized, human IgG4 / kappa) VH: QVQLVQSGAEVKKPGASVKVSCKASGYYFTSYWMNWVRQAPGQGLEWMGMIHPYDSETRLAQKFKGRVTMTVDKSTSTVYMELSSLRSEDTAVYYCASSTTAFAYWGQGTLVTVSS VL: DIQMTQSPSSLSASVGDRVTITCRASQDIGNALNWYQQKPGKAPKRLIYATSSLDPGVPSRFSGSRSGTDFTLTISSLQPEDFATYYCLQYASSPYTFGQGTKVEIKR | 1.42e-11 | 1.12e-11 | 1.46e-11 | 7.75e-12 | 99.5 | 98.9 | 98.5 | 99.4 | 24.4 | 5.75 | 3.71e-11 | 5.76e-11 | 3.48e-11 | 5.01e-12 | 94.4 | 92.5 | 93.5 | 109
hz84C4-1.5 (antibody, human IgG4 S228P, kappa, V domains shown, Humanized, human IgG4 / kappa) VH: QVQLVQSGAEVKKPGASVKVSCKVSGYFFTSYWMNWVNQAPGQGLEWMGMIHPYDSETRLAQKFKGRVTMTVDKSTSTVYMELSSLRSEDTAVYYCASSTTAFAYWGQGTLVTVSS VL: DIQMTQSPSSLSASVGDRVTITCRASQDIGNALNWYQQKPGKAPKRLIYATSSLDPGVPSRFSGSRSGTDFTLTISSLQPEDFATYYCLQYASSPYTFGQGTKVEIKR | 8.48e-12 | 7.24e-12 | 1.06e-11 | 5.29e-12 | 99.5 | 99.3 | 99.2 | 99.6 | 10.5 | ~5.1 | 2.87e-11 | 2.77e-11 | 1.55e-11 | 1.27e-11 | 101 | 97 | 101 | 109
hz84C4-1.2 (antibody, human IgG4 S228P, kappa, V domains shown, Humanized, human IgG4 / kappa) VH: QVQLVQSGAEVKKPGASVKVSCKASGYFFTSYWMNWVRQAPGQGLEWMGYIHPYDSETRYAQKFQGRVTMTVDKSTSTVYMELSSLRSEDTAVYYCASSTTAFAYWGQGTLVTVSS VL: DIQMTQSPSSLSASVGDRVTITCRASQDIGNALNWYQQKPGKAPKRLIYATSSLDPGVPSRFSGSRSGTDFTLTISSLQPEDFATYYCLQYASSPYTFGQGTKVEIKR | 8.5e-12 | 7.75e-12 | 1.6e-12 | 8.99e-12 | 99.1 | 99.2 | 98.9 | 99.5 | 37.3 | 6 | 1.02e-10 | 6.67e-11 | 9.53e-12 | 3.42e-12 | 92.5 | 82.8 | 91.2 | 98.3
